For experiment [1], the target named is human transferrin receptor (TfR) on cells (human, UniProt P02786 1-760). Briefly: cell-based or functional assay.
Experiment [2] deals with T1, soluble TfR antigen (human TfR extracellular domain) (human, UniProt P02786 89-760).
T1 construct: also called soluble human TfR
Briefly: ELISA, soluble TfR antigen coated at 2 ug/mL, HRP anti-human IgG Fc, A450.

The text below walks through data of patent US20150291697A1 (PERSEUS PROTEOMICS, published 2015).

Sequence of human transferrin receptor (TfR) on cells (P02786 whole entry, the tested form may be a part): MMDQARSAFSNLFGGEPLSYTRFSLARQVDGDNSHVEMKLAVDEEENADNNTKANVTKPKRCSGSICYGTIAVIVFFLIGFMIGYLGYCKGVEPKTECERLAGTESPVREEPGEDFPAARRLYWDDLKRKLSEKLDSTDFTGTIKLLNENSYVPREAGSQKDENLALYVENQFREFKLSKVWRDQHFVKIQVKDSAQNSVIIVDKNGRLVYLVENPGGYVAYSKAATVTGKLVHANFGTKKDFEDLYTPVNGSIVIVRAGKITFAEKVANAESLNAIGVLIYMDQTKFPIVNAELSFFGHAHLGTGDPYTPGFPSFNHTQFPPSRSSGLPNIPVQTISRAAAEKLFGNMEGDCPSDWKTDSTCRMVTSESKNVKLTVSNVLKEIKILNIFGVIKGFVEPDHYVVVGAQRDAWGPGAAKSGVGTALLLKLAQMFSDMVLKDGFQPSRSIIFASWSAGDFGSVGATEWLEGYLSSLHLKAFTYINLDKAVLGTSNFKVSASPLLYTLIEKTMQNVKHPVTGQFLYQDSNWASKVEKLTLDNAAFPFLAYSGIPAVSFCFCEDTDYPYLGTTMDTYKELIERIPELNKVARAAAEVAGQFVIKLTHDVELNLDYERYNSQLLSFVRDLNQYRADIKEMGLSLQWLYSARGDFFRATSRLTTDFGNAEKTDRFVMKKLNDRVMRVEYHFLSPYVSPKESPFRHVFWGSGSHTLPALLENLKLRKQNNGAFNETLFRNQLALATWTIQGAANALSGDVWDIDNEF
T1 sequence (P02786 89-760 limits assumed): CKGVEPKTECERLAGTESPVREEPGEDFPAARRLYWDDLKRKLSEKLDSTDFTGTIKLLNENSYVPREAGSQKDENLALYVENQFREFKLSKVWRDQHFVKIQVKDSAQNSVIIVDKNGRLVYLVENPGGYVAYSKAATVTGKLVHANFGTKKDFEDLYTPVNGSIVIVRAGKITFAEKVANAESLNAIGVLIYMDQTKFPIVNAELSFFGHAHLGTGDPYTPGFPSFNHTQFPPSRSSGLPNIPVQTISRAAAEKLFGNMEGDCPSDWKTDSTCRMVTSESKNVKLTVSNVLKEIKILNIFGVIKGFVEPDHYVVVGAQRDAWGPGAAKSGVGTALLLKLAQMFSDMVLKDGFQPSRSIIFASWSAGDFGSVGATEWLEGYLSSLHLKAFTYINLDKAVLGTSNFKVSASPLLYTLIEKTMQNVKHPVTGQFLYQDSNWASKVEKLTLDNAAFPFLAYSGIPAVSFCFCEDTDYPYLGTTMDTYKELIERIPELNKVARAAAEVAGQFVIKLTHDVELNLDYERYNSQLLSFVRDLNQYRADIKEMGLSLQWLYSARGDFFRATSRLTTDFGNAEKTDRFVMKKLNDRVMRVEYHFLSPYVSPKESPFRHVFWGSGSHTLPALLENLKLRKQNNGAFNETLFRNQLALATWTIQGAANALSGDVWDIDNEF

B1: TfR006 antibody (parent antibody, IgG) (antibody, V domains shown)
VH: QVQLVQSGGGVVQPGRSLRLSCAASGFPFKSYGMHWVRQAPGKGLEWVAVISFDGSSKYYADSVKGRFTISRDNSKNTLYLQMNSLRGEDTAVYYCARDSNFWSGYYSPVDVWGQGTTVTVSS
VL: NFMLTQPHSVSESPGKTVTISCTRSSGSIASNSVQWYQQRPGSAPITVIYEDTQRPSGVPDRFSGSIDSSSNSASLTISGLQTEDEADYYCQSYDSAYHWVFGGGTKLAVL
B1: in experiment [1], the “Antibody concentration exhibiting 50% growth rate (IC50), K562 cells” value turned out to be 0.034 µg/mL and the “Antibody concentration exhibiting 50% growth rate (IC50), MT-2 cells” value came out at 0.008 µg/mL.

B2: 3TF12 IgG1 antibody (from 3TF12 scFv of WO 2011/073943) (antibody, V domains shown)
VH: QVQLQESGGGLVQPGGSLRLSCAASGFSFNTYTMHWVRQAPGKGLEWVADIAYDGSTKYYADSVKGRFTISRDNAKNSLYLQMNSLRAEDTAVYYCARDAVAGEGYFDLWGRGTLVTVSS
VL: QSALTQDPAVSVALGQTVRITCQGDSLRSYYASWYQQLPGTAPKLLIYRNNQRPSGVPDRFSGSKSGTSASLAISGLRSEDEADYYCAAWDDSLSAWVFGGGTKLTVLG
notes: also called 3TF12 antibody
As to B2, in experiment [2], the binding result was “binds”.
